Drawing on PMC12575849, this text covers Kd for two substances.

The subject of data set [1] is CHD1 WT (human). As to the kind of experiment: EMSA. The note with it: 5 mM Mg2+, no ATP listed; 10 mM HEPES pH 8.0, 75 mM NaCl, 5 mM MgCl2, 10% glycerol, 1 mM DTT, 0.1 mg/ml BSA; 5 nM nucleosome; 30 min at 30 C; native PAGE.
Data set [2] has as its system CHD1 deltaNC (human). The experiment in a line: EMSA. The note with it: 5 mM Mg2+, no ATP listed; 10 mM HEPES pH 8.0, 75 mM NaCl, 5 mM MgCl2, 10% glycerol, 1 mM DTT, 0.1 mg/ml BSA; 5 nM nucleosome; 30 min at 30 C; native PAGE.
Data set [3] has as its target unmodified nucleosome (recombinant human histone octamer on Widom 601 DNA) (human) (UniProt P04908). As to the kind of experiment: native gel or EMSA; purified CHD1 titrated against 5 nM IR dye-conjugated nucleosome in EMSA buffer (10 mM HEPES pH 8.0, 75 mM NaCl, 5 mM MgCl2, 10% glycerol, 1 mM DTT, 0.1 mg/ml BSA), 30 min at 30 °C, native PAGE; shifted fraction fitted to a dose-response curve.

Chain of recombinant CHD1^WT protein (O14646 whole entry): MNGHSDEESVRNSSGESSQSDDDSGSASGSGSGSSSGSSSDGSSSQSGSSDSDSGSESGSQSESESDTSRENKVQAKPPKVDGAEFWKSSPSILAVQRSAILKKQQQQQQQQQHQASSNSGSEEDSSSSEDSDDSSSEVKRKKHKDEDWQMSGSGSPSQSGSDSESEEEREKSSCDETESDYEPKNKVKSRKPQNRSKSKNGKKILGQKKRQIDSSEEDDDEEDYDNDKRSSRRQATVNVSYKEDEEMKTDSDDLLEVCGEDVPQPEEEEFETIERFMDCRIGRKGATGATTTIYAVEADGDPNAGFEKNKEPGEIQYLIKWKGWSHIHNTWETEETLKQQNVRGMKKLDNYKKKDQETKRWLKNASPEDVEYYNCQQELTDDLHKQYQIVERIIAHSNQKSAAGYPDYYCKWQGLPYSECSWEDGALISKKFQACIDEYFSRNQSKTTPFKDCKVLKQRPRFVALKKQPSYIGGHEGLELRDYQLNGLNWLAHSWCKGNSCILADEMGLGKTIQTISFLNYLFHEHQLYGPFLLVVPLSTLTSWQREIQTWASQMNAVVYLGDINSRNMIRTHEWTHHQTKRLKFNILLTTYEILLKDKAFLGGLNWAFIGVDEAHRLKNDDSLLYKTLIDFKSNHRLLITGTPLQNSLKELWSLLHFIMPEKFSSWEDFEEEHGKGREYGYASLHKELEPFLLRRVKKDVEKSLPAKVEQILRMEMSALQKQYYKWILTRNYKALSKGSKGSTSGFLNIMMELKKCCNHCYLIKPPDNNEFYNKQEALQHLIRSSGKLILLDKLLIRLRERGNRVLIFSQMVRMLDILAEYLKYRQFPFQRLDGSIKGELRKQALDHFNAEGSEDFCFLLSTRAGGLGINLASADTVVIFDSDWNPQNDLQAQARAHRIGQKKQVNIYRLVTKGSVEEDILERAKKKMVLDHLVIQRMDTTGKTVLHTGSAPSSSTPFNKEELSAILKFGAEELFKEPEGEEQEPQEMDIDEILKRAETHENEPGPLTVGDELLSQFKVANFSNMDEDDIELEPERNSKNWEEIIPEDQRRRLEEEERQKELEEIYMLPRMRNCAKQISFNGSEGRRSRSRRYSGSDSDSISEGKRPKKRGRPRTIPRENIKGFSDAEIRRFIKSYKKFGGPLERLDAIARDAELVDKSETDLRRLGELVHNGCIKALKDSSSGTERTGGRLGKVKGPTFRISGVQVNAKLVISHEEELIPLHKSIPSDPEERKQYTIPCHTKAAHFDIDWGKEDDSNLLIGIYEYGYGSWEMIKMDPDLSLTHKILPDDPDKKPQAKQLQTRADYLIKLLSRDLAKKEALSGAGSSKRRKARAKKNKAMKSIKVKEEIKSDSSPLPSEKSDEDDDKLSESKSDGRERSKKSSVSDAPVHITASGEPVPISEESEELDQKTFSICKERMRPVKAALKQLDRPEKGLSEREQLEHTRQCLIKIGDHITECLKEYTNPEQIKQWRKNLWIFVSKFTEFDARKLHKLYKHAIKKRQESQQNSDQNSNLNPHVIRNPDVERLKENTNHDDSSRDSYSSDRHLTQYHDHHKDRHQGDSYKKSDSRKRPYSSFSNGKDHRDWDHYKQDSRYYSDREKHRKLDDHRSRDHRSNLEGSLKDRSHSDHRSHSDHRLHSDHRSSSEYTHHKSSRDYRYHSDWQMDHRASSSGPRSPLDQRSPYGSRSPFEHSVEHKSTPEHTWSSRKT

As for Widom 601 nucleosome (unmodified), the values for the Kd in data set [1] and in data set [2] were 221 nM and 6.3 nM, respectively. As to “recombinant CHD1^WT protein (from UniProt O14646 1-1710) (natural protein)”, the Kd in data set [3] was 221 nM.
